Data reported in paper PMC12435366, “Maleic anhydride derived diphosphines: adaptable chelators for receptor-targeted ^99mTc, ^64Cu and ^188Re radiotracers” (Chemical Science, 2025).

Assay: in vivo
Design: species or system mice
Conditions: male, athymic nude (Crl:NU(NCr)-Foxn1nu), mouse, iv, total radioactivity
Protocol: The biodistribution of [^99mTcO2(DP^An-PSMAt)2]^+ and [^99mTcO2(DP^MEP-PSMAt)2]^+ was studied using SPECT/CT imaging and ex vivo biodistribution methods. In these studies, [^99mTcO2(DP^An-PSMAt)2]^+ and [^99mTcO2(DP^MEP-PSMAt)2]^+ were used directly from kit-based formulations, without further purification, mimicking procedures used in clinical radiopharmacies and nuclear medicine departments. Mice were injected with [^99mTcO2(DP^An-PSMAt)2]^+ or [^99mTcO2(DP^MEP-PSMAt)2]^+ (4–5 MBq), containing 3 μg (2.6 nmol) of DP^An-PSMAt or 3.5 μg (2.6 nmol) of (DP^MEP-PSMAt) via the tail-vein, and culled 2 h post-injection, followed by dissection, organ/tissue weighing and counting.
The biodistribution of [^99mTcO2(DP^An-PSMAt)2]^+ and [^99mTcO2(DP^MEP-PSMAt)2]^+ was further studied in (i) male SCID/Beige mice bearing DU145-PSMA+ prostate cancer xenografts (Fig. 8) and (ii) male nude mice bearing PSMA-expressing LNCaP prostate cancer xenografts (see SI). […]
4.10 In vivo imaging and biodistribution (DU145-PSMA+ and LNCaP)
Preparation of tumour-bearing mice: All animal experiments were ethically reviewed by an Animal Welfare & Ethical Review Board at either King’s College London or Bart’s Cancer Institute and carried out in accordance with the Animals (Scientific Procedures) Act 1986 UK Home Office regulations governing animal experimentation. Subcutaneous prostate cancer xenografts were produced in SCID/beige mice (male, 7–12 weeks old) by injecting 4 × 10^6 DU145-PSMA+ or DU145 cells suspended in PBS (100 μL) on the right shoulder. Imaging and biodistribution studies were performed once a tumour had reached 5–10 mm in diameter (3–4 weeks after injection). Subcutaneous LNCaP prostate cancer xenografts were produced in athymic nude (Crl:NU(NCr)-Foxn1nu) mice (male, 6–7 weeks old) by injecting 5 × 10^6 LNCaP cells suspended in PBS:matrigel (1:1, 200 μL) on the right flank.
Biodistribution studies using 99mTc radiotracers were performed once a tumour had reached 150– 300 mm3 in volume (2–7 weeks after injection).
SCID/beige mice bearing DU145-PSMA+ prostate cancer tumour xenografts
SPECT/CT scanning and biodistribution studies: The 99mTc radiotracers (3.9–4.5 MBq, 3 mice per group, containing DPAn-PSMAt = 3.0 µg or DPMEP-PSMAt = 3.5 µg) were administered via tail vein injection under isoflurane anaesthesia. […]
in helical scanning mode). At 2 h post-injection, the animals were euthanized by cervical dislocation, organs/tissues harvested and weighed, and radioactivity counted using a gamma […]
ii. […] After scanning, the organs/tissues were harvested, weighed and radioactivity counted […]
Urine was collected and directly analysed by reverse-phase radio-HPLC (method 2). Data were analysed in GraphPad Prism 9 (version 9.1.1) and expressed as mean ± standard deviation (SD). […]

SMILES	tissue uptake at 2 h (Kidney) [%ID/g]	tissue uptake at 2 h (Liver) [%ID/g]
COc1ccc(P(/C(C(=O)O)=C(/C(=O)NCCOCCOCCOCCOCCC(=O)NCCCC[C@H](NC(=O)N[C@@H](CCC(=O)O)C(=O)O)C(=O)O)P(c2ccc(OC)cc2)c2ccc(OC)cc2)c2ccc(OC)cc2)cc1 [[^99mTcO2(DP^An-PSMAt)2]^+, metal not drawn]	87.6 ± 13.3	0.9 ± 0.15
COCCOc1ccc(P(/C(C(=O)O)=C(/C(=O)NCCOCCOCCOCCOCCC(=O)NCCCC[C@H](NC(=O)N[C@@H](CCC(=O)O)C(=O)O)C(=O)O)P(c2ccc(OCCOC)cc2)c2ccc(OCCOC)cc2)c2ccc(OCCOC)cc2)cc1 [[^99mTcO2(DP^MEP-PSMAt)2]^+, metal not drawn]	46.4 ± 23.2	7.38 ± 3.98
